Laboratory results from patent publication US20190241674A1 (MAB DISCOVERY, published 2019).

Tests used:
HER2 on SK-BR-3 cells = molecular target: T1, HER2 on SK-BR-3 cells (human, UniProt P04626 23-1255); test: cell binding to SK-BR-3, high content imaging (Example 4)
T1 construct: whole, on cells

FcγRIIIa receptor, V158 = FcγRIIIa receptor, V158 (human, UniProt P08637 17-254); test: cell-based or functional assay
[1] = molecular target: T2, Recombinant Human ErbB2/HER2 Fc Chimera; R&D Systems; Cat. No. 1129-ER (human, UniProt P04626 23-652); test: HER2 biochemical ELISA, coated HER2 Fc chimera (Example 3)
T2 construct: Bought reagent; also called human Her2; HER2-HIS-tag; not shown: not described

Chain of FcγRIIIa receptor, V158 (P08637 17-254 F176V): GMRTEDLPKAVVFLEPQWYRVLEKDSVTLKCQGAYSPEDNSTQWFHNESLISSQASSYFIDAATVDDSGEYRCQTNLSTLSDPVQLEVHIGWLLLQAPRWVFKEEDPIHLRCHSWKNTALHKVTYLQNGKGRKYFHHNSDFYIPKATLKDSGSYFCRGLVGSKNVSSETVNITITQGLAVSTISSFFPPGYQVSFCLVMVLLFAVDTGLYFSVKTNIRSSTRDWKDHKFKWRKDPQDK

B1: MABD B100 (antibody)
heavy: not shown
light: DIVMTQTPASVSEPVGGTVTIKCQASQGISTALAWYQQKPGQRPKLLIYSASTLASGVSSRFKGSGSGTQFTLTISDLECADAATYYCQCTAAGSVSVGAFGGGTEVVVNRTVAAPSVFIFPPSDEQLKSGTASVVCLLNNFYPREAKVQWKVDNALQSGNSQESVTEQDSKDSTYSLSSTLTLSKADYEKHKVYACEVTHQGLSSPVTKSFNRGEC
EC50 (HER2 on SK-BR-3 cells): 0.078 µg/mL
EC50 of FcR signaling (FcγRIIIa receptor, V158): 0.052 µg/mL
stimulation of FcR signaling (FcγRIIIa receptor, V158): 132 fold
EC50 [1]: 0.0052 µg/mL
